Reference: patent publication US11278600B2, “Human alpha-galactosidase variants” (Codexis, Inc., priority 2014, dated 2022)

Experiments:
Type in all cases: biochemical
[1] = HTP-analysis of supernatants pretreated with bovine serum (MUGal hydrolysis); details: activity of the variant/activity of Rd2BB (SEQ ID NO: 10), yeast culture supernatant
Method: Yeast (INVSc1) cells transformed with vectors expressing GLA and GLA variants using the lithium acetate method were selected on SD-Ura agar plates. After 72 h incubation at 30° C. colonies were placed into the wells of Axygen® 1.1 ml 96-well deep well plates filled with 200 μl/well SD-Ura broth (2 g/L SD-Ura, 6.8 g/L yeast nitrogen base without amino acids [Sigma Aldrich]), 3.06 g/L sodium dihydrogen phosphate, 0.804 g/L disodium hydrogen phosphate, pH 6.0 supplemented with 6% glucose. The cells were allowed to grow for 20-24 hours in a Kuhner shaker (250 rpm, 30° C., and 85% relative humidity). Overnight culture samples (20 μL) were transferred into Corning Costar® 96-well deep plates filled with 380 µL of SD-ura broth supplemented with 2% glucose. The plates were incubated for 66-84 h in a Kuhner shaker (250 rpm, 30° C., and 85% relative humidity). The cells were then pelleted (4000 rpm×20 min), and the supernatants isolated and stored at 4° C. prior to analysis.
GLA variants were challenged with bovine serum to simulate the conditions the variants encounter following infusion into a patient. First, 20 μL of yeast culture supernatant and 80 μL, of bovine serum were added to the wells of a 96-well round bottom plate. The plates were sealed and incubated at 37° C. for 1 h. For the assay, 50 μL of serum-challenged sample was mixed with 25 μL, of 1 M citrate buffer pH 4.3 and 25 μL, of 4 mM MUGal in McIlvaine buffer pH 4.8. The reactions were mixed briefly and incubated at 37° C. for 180 minutes, prior to quenching with 100 μL, of 1 M sodium carbonate. Hydrolysis was analyzed using a SpectraMax® M2 microplate reader monitoring fluorescence (Ex. 355 nm, Em. 448 nm).

[2] = HTP-analysis of supernatants pretreated with acid (MUGal hydrolysis); details: challenge at pH 4.2; activity of the variant/activity of Rd2BB (SEQ ID NO: 10); yeast culture supernatant
Summary of the method: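 Supernatants from INVSc1 yeast secreting GLA variants were challenged at 37° C. for 1-3 h in McIlvaine buffer at pH 3.3-4.3. Residual activity was then measured on 4 mM MUGal substrate stock at pH 4.8 with citrate buffer pH 4.3, over 30-180 min at 37° C. Reactions were quenched with sodium carbonate and read by fluorescence (Ex 355/Em 448 nm).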

[3] = HTP-analysis of supernatants pretreated with base (MUGal hydrolysis); details: challenge at pH 7.6; activity of the variant/activity of Rd2BB (SEQ ID NO: 10); yeast culture supernatant
Summary of the method: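 Supernatants from INVSc1 yeast expressing GLA variants (SD-Ura, 66-84 h, 30° C) were mixed with McIlvaine buffer pH 7.0-8.2 or 200 mM sodium bicarbonate pH 9.1-9.7 and held 1-18 h at 37° C. Residual activity was then measured on MUGal at pH 4.8/4.3, 37° C, 30-180 min, by fluorescence (Ex 355/Em 448 nm).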

[4] = HTP-analysis of yeast culture supernatants, no challenge (MUGal hydrolysis); details: activity of the variant/activity of Rd2BB (SEQ ID NO: 10), yeast culture supernatant
Summary of the method: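 Activity read as 4-methylumbelliferyl α-D-galactopyranoside hydrolysis: fluorescence (355/448 nm) after sodium carbonate stop, following 30-180 min at 37° C with 2 mM MUGal stock at pH 4.6–4.8. Enzyme source is unchallenged culture supernatant of INVSc1 yeast expressing GLA variants, grown 66-84 h at 30° C.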

B1: 249 (protein)
chain: LDNGLARTPTMGWLHWERFMCNLDCQEEPDSCISEKLFMEMAELMVSEGWKDAGYEYLCIDDCWMAPQRDSEGRLQADPQRFPHGIRQLANYVHSKGLKLGIYADVGNKTCAGFPGSFGYYDIDAQTFADWGVDLLKFDGCYCDSLENLADGYKHMSLALNRTGRSIVYSCEWPLYMWPFQKPNYTEIRQYCNHWRNFADIDDSWASIKSILDWTSFNQETIVDVAGPGGWNDPDMLVIGNFGLSWNQQVTQMALWAIMAAPLFMSNDLRHISPQAKALLQDKDVIAINQDPLGKQGYQLRQGDNFEVWERPLSGLAWAVAVINRQEIGGPRSYTIAVASLGKGVACNPACFITQLLPVKRKLGFYEWTSRLKSHINPTGTVLLQLENTMQMSLKDLL
modifications: Synthetic Polypeptide sequence of Variant No. 249 of mature Human GLA
Relative Activity of GLA Variants After Challenge with Serum [1]: ++ (++ = 1.5 to 2.5 relative activity over Rd2BB (SEQ ID NO: 10))
Relative Activity of GLA Variants After Challenge at pH 4.2 [2]: ++ (++ = 1.5 to 2.5 relative activity over Rd2BB (SEQ ID NO: 10))
Relative Activity of GLA Variants After Challenge at pH 7.6 [3]: +++ (+++ = >2.5 relative activity over Rd2BB (SEQ ID NO: 10))
Relative Activity of GLA Variants After No Challenge (NC) [4]: ++ (++ = 1.5 to 2.5 relative activity over Rd2BB (SEQ ID NO: 10))

B2: 253 (protein)
chain: LDNGLARTPTMGWLHWERFMCNLDCQEEPDSCISEKLFMEMAELMVSEGWKDAGYEYLCIDDCWMAPQRDSEGRLQADPQRFPHGIRQLANYVHSIGLKLGIYADVGNKTCAGFPGSFGYYDIDAQTFADWGVDLLKFDGCYCDSLENLADGYKHMSLALNRTGRSIVYSCEWPLYMWPFQKPNYTEIRQYCNHWRNFADIDDSWASIKSILDWTSFNQERIVDVAGPGGWNDPDMLVIGNFGLSWDQQVTQMALWAIMAAPLFMSNDLRHISPQAKALLQDKDVIAINQDPLGKQGYQLRKGDNFEVWERPLSGDAWAVAMINRQEIGGPRSYTIPVASLGKGVACNPACFITQLLPVKRKLGFYDWDSRLRSHINPTGTVLLQLENTMQMSLKDLL
modifications: Synthetic Polypeptide sequence of Variant No. 253 of mature Human GLA
Relative Activity of GLA Variants After Challenge with Serum [1]: +++ (+++ = >2.5 relative activity over Rd2BB (SEQ ID NO: 10))
Relative Activity of GLA Variants After Challenge at pH 4.2 [2]: +++ (+++ = >2.5 relative activity over Rd2BB (SEQ ID NO: 10))
Relative Activity of GLA Variants After Challenge at pH 7.6 [3]: +++ (+++ = >2.5 relative activity over Rd2BB (SEQ ID NO: 10))
Relative Activity of GLA Variants After No Challenge (NC) [4]: +++ (+++ = >2.5 relative activity over Rd2BB (SEQ ID NO: 10))

B3: 250 (protein)
chain: LDNGLARTPTMGWLHWERFMCNLDCQEEPDSCISEKLFMEMAELMVSEGWKDAGYEYLCIDDCWMAPQRDSEGRLQADPQRFPHGIRQLANYVHSIGLKLGIYADVGNKTCAGFPGSFGYYDIDAQTFADWGVDLLKFDGCYCDSLENLADGYKHMSLALNRTGRSIVYSCEWPLYMWPFQKPNYTEIRQYCNHWRNFADIDDSWASIKSILDWTSRNQERIVDVAGPGGWNDPDMLVIGNFGLSWNQQVTQMALWAIMAAPLFMSNDLRHISPQAKALLQDKDVIAINQDPLGKQGYQLRQGDNFEVWERPLSGLAWAVAMINRQEIGGPRSYTIAVASLGKGVACNPACFITQLLPVKRKLGFYEWTSRLRSHINPTGTVLLQLENTMQMSLKDLL
modifications: Synthetic Polypeptide sequence of Variant No. 250 of mature Human GLA
Relative Activity of GLA Variants After Challenge with Serum [1]: + (+ = 0.5 to 1.5 relative activity over Rd2BB (SEQ ID NO: 10))
Relative Activity of GLA Variants After Challenge at pH 4.2 [2]: + (+ = 0.5 to 1.5 relative activity over Rd2BB (SEQ ID NO: 10))
Relative Activity of GLA Variants After Challenge at pH 7.6 [3]: + (+ = 0.5 to 1.5 relative activity over Rd2BB (SEQ ID NO: 10))
Relative Activity of GLA Variants After No Challenge (NC) [4]: + (+ = 0.5 to 1.5 relative activity over Rd2BB (SEQ ID NO: 10))

B4: 254 (protein)
chain: LDNGLARTPTMGWLHWERFMCNLDCQEEPDSCISEKLFMEMAELMVSEGWKDAGYEYLCIDDCWMAPQRDSEGRLQADPQRFPHGIRQLANYVHSKGLKFGIYADVGNKTCAGFPGSFGYYDIDAQTFADWGVDLLKFDGCYCDSLENLADGYKHMSLALNRTGRSIVYSCEWPLYMWPFQKPNYTEIRQYCNHWRNFADIDDSWASIKSILDWTSFNQERIVDVAGPGGWNDPDMLVIGNFGLSWNQQVTQMALWAIMAAPLFMSNDLRHISPQAKALLQDKDVIAINQDPLGKQGYQLRQGDNFEVWERPLSGLAWAVAMINRQEIGGPRSYTIAVASLGKGVACNPACFITQLLPVKRKLGFYEWTSRLRSHINPTGTVLLQLENTMQMSLKDLL
modifications: Synthetic Polypeptide sequence of Variant No. 254 of mature Human GLA
Relative Activity of GLA Variants After Challenge with Serum [1]: + (+ = 0.5 to 1.5 relative activity over Rd2BB (SEQ ID NO: 10))
Relative Activity of GLA Variants After Challenge at pH 4.2 [2]: + (+ = 0.5 to 1.5 relative activity over Rd2BB (SEQ ID NO: 10))
Relative Activity of GLA Variants After Challenge at pH 7.6 [3]: + (+ = 0.5 to 1.5 relative activity over Rd2BB (SEQ ID NO: 10))
Relative Activity of GLA Variants After No Challenge (NC) [4]: + (+ = 0.5 to 1.5 relative activity over Rd2BB (SEQ ID NO: 10))

B5: 251 (protein)
chain: LDNGLARTPTMGWLHWERFMCNLDCQEEPDSCISEKLFMEMAELMVSEGWKDAGYEYLCIDDCWMAPQRDSEGRLQADPQRFPHGIRQLANYVHSIGLKLGIYADVGNKTCAGFPGSFGYYDIDAQTFADWGVDLLKFDGCYCDSLENLADGYKHMSLALNRTGRSIVYSCEWPLYMWPFQKPNYTEIRQYCNHWRNFADIDDSWASIKSILDWTSRNQERIVDVAGPGGWNDPDMLVIGNFGLSWDQQVTQMALWAIMAAPLFMSNDLRHISPQAKALLQDKDVIAINQDPLGKQGYQLRQGDNFEVWERPLSGLAWAVAMINRQEIGGPRSYTIAVASLGKGVACNPACFITQLLPVKRKLGFYEWTSRLRSHINPTGTVLLQLENTMQMSLKDLL
modifications: Synthetic Polypeptide sequence of Variant No. 251 of mature Human GLA
Relative Activity of GLA Variants After Challenge with Serum [1]: + (+ = 0.5 to 1.5 relative activity over Rd2BB (SEQ ID NO: 10))
Relative Activity of GLA Variants After Challenge at pH 4.2 [2]: + (+ = 0.5 to 1.5 relative activity over Rd2BB (SEQ ID NO: 10))
Relative Activity of GLA Variants After Challenge at pH 7.6 [3]: ++ (++ = 1.5 to 2.5 relative activity over Rd2BB (SEQ ID NO: 10))
Relative Activity of GLA Variants After No Challenge (NC) [4]: ++ (++ = 1.5 to 2.5 relative activity over Rd2BB (SEQ ID NO: 10))

B6: 252 (protein)
chain: LDNGLARTPTMGWLHWERFMCNLDCQEEPDSCISEKLFMEMAELMVSEGWKDAGYEYLCIDDCWMAPQRDSEGRLQADPQRFPHGIRQLANYVHSIGLKLGIYADVGNKTCAGFPGSFGYYDIDAQTFADWGVDLLKFDGCYCDSLENLADGYKHMSLALNRTGRSIVYSCEWPLYMWPFQKPNYTEIRQYCNHWRNFADIDDSWASIKSILDWTSFNQERIVDVAGPGGWNDPDMLVIGNFGLSWDQQVTQMALWAIMAAPLFMSNDLRHISPQAKALLQDKDVIAINQDPLGKQGYQLRQGDNFEVWERPLSGLAWAVAMINRQEIGGPRSYTIAVASLGKGVACNPGCFITQLLPVKRKLGFYDWDSRLRSHINPTGTVLLQLENTMQMSLKDLL
modifications: Synthetic Polypeptide sequence of Variant No. 252 of mature Human GLA
Relative Activity of GLA Variants After Challenge with Serum [1]: +++ (+++ = >2.5 relative activity over Rd2BB (SEQ ID NO: 10))
Relative Activity of GLA Variants After Challenge at pH 4.2 [2]: +++ (+++ = >2.5 relative activity over Rd2BB (SEQ ID NO: 10))
Relative Activity of GLA Variants After Challenge at pH 7.6 [3]: +++ (+++ = >2.5 relative activity over Rd2BB (SEQ ID NO: 10))
Relative Activity of GLA Variants After No Challenge (NC) [4]: +++ (+++ = >2.5 relative activity over Rd2BB (SEQ ID NO: 10))
